From publication PMC4132754 (Nucleic Acids Research, 2014)
Blank lines part the entries; values can stand above or below the binder they belong to.

Target: Flag-HA-SBP-SMG6 (human, UniProt Q86US8 1-1419)
Experiment: pull-down

Sequence of Flag-HA-SBP-SMG6 (Q86US8 whole entry): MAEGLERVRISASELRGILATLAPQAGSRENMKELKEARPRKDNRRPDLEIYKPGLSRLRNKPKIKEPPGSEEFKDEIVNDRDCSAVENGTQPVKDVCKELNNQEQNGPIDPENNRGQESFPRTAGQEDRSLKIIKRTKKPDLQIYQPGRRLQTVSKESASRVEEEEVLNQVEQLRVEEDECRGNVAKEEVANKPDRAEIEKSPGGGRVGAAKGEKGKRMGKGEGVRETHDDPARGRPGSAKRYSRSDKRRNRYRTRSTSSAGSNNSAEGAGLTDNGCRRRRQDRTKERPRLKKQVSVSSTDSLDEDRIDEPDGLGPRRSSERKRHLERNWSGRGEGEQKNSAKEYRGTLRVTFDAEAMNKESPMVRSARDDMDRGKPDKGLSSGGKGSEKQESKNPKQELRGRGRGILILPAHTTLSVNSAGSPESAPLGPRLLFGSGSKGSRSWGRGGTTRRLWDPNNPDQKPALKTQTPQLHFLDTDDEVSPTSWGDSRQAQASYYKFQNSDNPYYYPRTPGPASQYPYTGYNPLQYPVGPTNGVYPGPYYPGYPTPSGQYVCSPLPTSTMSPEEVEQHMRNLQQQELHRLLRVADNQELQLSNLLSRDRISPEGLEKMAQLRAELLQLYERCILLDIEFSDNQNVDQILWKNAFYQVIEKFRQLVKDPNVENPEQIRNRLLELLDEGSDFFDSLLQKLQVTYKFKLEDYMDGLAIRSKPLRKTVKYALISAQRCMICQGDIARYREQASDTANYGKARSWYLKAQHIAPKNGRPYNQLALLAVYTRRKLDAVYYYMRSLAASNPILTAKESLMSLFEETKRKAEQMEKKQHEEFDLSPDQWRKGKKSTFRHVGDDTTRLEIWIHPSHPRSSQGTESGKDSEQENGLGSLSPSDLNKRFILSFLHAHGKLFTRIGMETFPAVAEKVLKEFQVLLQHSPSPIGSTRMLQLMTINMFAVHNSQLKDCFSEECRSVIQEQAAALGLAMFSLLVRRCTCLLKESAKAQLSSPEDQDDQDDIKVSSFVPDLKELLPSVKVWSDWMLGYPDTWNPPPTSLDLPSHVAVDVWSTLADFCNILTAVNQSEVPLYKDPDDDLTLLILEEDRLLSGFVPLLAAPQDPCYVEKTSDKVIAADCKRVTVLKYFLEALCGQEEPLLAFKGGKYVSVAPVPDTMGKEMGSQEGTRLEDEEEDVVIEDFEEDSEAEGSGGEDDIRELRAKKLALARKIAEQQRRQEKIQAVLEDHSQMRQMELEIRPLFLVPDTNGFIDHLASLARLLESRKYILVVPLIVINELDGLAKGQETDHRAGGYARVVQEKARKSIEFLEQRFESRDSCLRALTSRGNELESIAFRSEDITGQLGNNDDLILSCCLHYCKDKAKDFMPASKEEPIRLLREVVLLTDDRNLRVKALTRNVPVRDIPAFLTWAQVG

binding result: binds
B1: SBP-UPF1 Δ1C (natural protein)
chain: MSVEAYGPSSQTLTFLDTEEAELLGADTQGSEFEFTDFTLPSQTQTPPGGPGGPGGGGAGGPGGAGAGAAAGQLDAQVGPEGILQNGAVDDSVAKTSQLLAELNFEEDEEDTYYTKDLPIHACSYCGIHDPACVVYCNTSKKWFCNGRGNTSGSHIVNHLVRAKCKEVTLHKDGPLGETVLECYNCGCRNVFLLGFIPAKADSVVVLLCRQPCASQSSLKDINWDSSQWQPLIQDRCFLSWLVKIPSEQEQLRARQITAQQINKLEELWKENPSATLEDLEKPGVDEEPQHVLLRYEDAYQYQNIFGPLVKLEADYDKKLKESQTQDNITVRWDLGLNKKRIAYFTLPKTDSDMRLMQGDEICLRYKGDLAPLWKGIGHVIKVPDNYGDEIAIELRSSVGAPVEVTHNFQVDFVWKSTSFDRMQSALKTFAVDETSVSGYIYHKLLGHEVEDVIIKCQLPKRFTAQGLPDLNHSQVYAVKTVLQRPLSLIQGPPGTGKTVTSATIVYHLARQGNGPVLVCAPSNIAVDQLTEKIHQTGLKVVRLCAKSREAIDSPVSFLANADVICCTCVGAGDPRLAKMQFRSILIDESTQATEPECMVPVVLGAKQLILVGDHCQLGPVVMCKKAAKAGLSQSLFERLVVLGIRPIRLQVQYRMHPALSAFPSNIFYEGSLQNGVTAADRVKKGFDFQWPQPDKPMFFYVTQGQEEIASSGTSYLNRTEAANVEKITTKLLKAGAKPDQIGIITPYEGQRSYLVQYMQFSGSLHTKLYQEVEIASVDAFQGREKDFIILSCVRANEHQGIGFLNDPRRLNVALTRARYGVIIVGNPKALSKQPLWNHLLNYYKEQKVLVEGPLNNLRESLMQFSKPRKLVNTINPGARFMTTAMYDAREAIIPGSVYDRSSQGRPSSMYFQTHDQIGMISAGPSHVAAMNIPIPFNLVMPPMPPPGYFGQANGPAAGRGTPKGKTGRGGRQKNRFGLPGPSQTNLPNSQASQDVASQPFSQGALTQGYISMSQPSQMSQPGLSQPELSQDSYLGDEFKSQIDVALSQDSTYQGERAYQHGGVTGLSQY

binding result: binds
B2: SBP-UPF1 WT (natural protein)
chain: MSVEAYGPSSQTLTFLDTEEAELLGADTQGSEFEFTDFTLPSQTQTPPGGPGGPGGGGAGGPGGAGAGAAAGQLDAQVGPEGILQNGAVDDSVAKTSQLLAELNFEEDEEDTYYTKDLPIHACSYCGIHDPACVVYCNTSKKWFCNGRGNTSGSHIVNHLVRAKCKEVTLHKDGPLGETVLECYNCGCRNVFLLGFIPAKADSVVVLLCRQPCASQSSLKDINWDSSQWQPLIQDRCFLSWLVKIPSEQEQLRARQITAQQINKLEELWKENPSATLEDLEKPGVDEEPQHVLLRYEDAYQYQNIFGPLVKLEADYDKKLKESQTQDNITVRWDLGLNKKRIAYFTLPKTDSDMRLMQGDEICLRYKGDLAPLWKGIGHVIKVPDNYGDEIAIELRSSVGAPVEVTHNFQVDFVWKSTSFDRMQSALKTFAVDETSVSGYIYHKLLGHEVEDVIIKCQLPKRFTAQGLPDLNHSQVYAVKTVLQRPLSLIQGPPGTGKTVTSATIVYHLARQGNGPVLVCAPSNIAVDQLTEKIHQTGLKVVRLCAKSREAIDSPVSFLALHNQIRNMDSMPELQKLQQLKDETGELSSADEKRYRALKRTAERELLMNADVICCTCVGAGDPRLAKMQFRSILIDESTQATEPECMVPVVLGAKQLILVGDHCQLGPVVMCKKAAKAGLSQSLFERLVVLGIRPIRLQVQYRMHPALSAFPSNIFYEGSLQNGVTAADRVKKGFDFQWPQPDKPMFFYVTQGQEEIASSGTSYLNRTEAANVEKITTKLLKAGAKPDQIGIITPYEGQRSYLVQYMQFSGSLHTKLYQEVEIASVDAFQGREKDFIILSCVRANEHQGIGFLNDPRRLNVALTRARYGVIIVGNPKALSKQPLWNHLLNYYKEQKVLVEGPLNNLRESLMQFSKPRKLVNTINPGARFMTTAMYDAREAIIPGSVYDRSSQGRPSSMYFQTHDQIGMISAGPSHVAAMNIPIPFNLVMPPMPPPGYFGQANGPAAGRGTPKGKTGRGGRQKNRFGLPGPSQTNLPNSQASQDVASQPFSQGALTQGYISMSQPSQMSQPGLSQPELSQDSYLGDEFKSQIDVALSQDSTYQGERAYQHGGVTGLSQY

binding result: binds
B3: SBP-UPF1 ΔStalkΔSQ1 (domain or fragment)
chain: MSVEAYGPSSQTLTFLDTEEAELLGADTQGSEFEFTDFTLPSQTQTPPGGPGGPGGGGAGGPGGAGAGAAAGQLDAQVGPEGILQNGAVDDSVAKTSQLLAELNFEEDEEDTYYTKDLPIHACSYCGIHDPACVVYCNTSKKWFCNGRGNTSGSHIVNHLVRAKCKEVTLHKDGPLGETVLECYNCGCRNVFLLGFIPAKADSVVVLLCRQPCASQSSLKDINWDSSQWQPLIQDRCFLSWLVKIPSEQEQLRARQITAQQINKLEELWKETSVSGYIYHKLLGHEVEDVIIKCQLPKRFTAQGLPDLNHSQVYAVKTVLQRPLSLIQGPPGTGKTVTSATIVYHLARQGNGPVLVCAPSNIAVDQLTEKIHQTGLKVVRLCAKSREAIDSPVSFLALHNQIRNMDSMPELQKLQQLKDETGELSSADEKRYRALKRTAERELLMNADVICCTCVGAGDPRLAKMQFRSILIDESTQATEPECMVPVVLGAKQLILVGDHCQLGPVVMCKKAAKAGLSQSLFERLVVLGIRPIRLQVQYRMHPALSAFPSNIFYEGSLQNGVTAADRVKKGFDFQWPQPDKPMFFYVTQGQEEIASSGTSYLNRTEAANVEKITTKLLKAGAKPDQIGIITPYEGQRSYLVQYMQFSGSLHTKLYQEVEIASVDAFQGREKDFIILSCVRANEHQGIGFLNDPRRLNVALTRARYGVIIVGNPKALSKQPLWNHLLNYYKEQKVLVEGPLNNLRESLMQFSKPRKLVNTINPGARFMTTAMYDAREAIIPGSVYDRSSQGRPSSMYFQTHDQIGMISAGPSHVAAMNIPIPFNLVMPPMPPPGYFGQANGPAAGRGTPKGKTGRGG
